Measured values from patent US20240032514A1 (RENGENE BIOTECHNOLOGY, published 2024).
Read-outs that look alike come from different tables or passages of the source.

How the values were obtained:
human C-reactive protein [1] = target: T1, human C-reactive protein (human, UniProt P02741 19-224); test: ELISA, CRP coated at 2 µg/mL
T1 construct: also called CRP; antigen CRP
T1 sequence (looked up): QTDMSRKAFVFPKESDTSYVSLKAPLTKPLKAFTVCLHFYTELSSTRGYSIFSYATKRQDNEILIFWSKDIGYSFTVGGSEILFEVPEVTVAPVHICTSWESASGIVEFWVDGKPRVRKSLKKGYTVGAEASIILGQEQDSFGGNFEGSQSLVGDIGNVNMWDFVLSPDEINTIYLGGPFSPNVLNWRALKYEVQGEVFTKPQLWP

human C-reactive protein [2] = target: T1, human C-reactive protein
human C-reactive protein [3] = target: T1, human C-reactive protein; test: BLI (FORTEBIO-OCTET), antibody at 10 µg/mL, CRP at 200-3.13 nM
OVA = target: T2, OVA (UniProt P01012 2-386); test: ELISA, protein coated at 2 µg/mL, antibody in gradient dilution
T2 construct: Control protein coated at 2 µg/mL; also called unrelated protein OVA
T2 sequence (looked up): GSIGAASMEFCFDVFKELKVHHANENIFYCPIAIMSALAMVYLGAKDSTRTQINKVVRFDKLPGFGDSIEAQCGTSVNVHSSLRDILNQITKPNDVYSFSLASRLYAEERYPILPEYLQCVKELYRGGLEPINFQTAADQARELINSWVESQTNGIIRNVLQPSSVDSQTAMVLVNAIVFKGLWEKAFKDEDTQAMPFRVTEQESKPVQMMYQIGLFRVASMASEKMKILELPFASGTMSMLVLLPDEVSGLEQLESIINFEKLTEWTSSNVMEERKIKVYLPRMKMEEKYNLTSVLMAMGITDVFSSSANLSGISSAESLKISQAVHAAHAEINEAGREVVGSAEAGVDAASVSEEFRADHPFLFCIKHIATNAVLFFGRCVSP

BSA = target: T3, BSA (UniProt P02769 25-607); test: as above
T3 construct: Control protein coated at 2 µg/mL; also called unrelated protein BSA
T3 sequence (P02769 25-607 limits assumed): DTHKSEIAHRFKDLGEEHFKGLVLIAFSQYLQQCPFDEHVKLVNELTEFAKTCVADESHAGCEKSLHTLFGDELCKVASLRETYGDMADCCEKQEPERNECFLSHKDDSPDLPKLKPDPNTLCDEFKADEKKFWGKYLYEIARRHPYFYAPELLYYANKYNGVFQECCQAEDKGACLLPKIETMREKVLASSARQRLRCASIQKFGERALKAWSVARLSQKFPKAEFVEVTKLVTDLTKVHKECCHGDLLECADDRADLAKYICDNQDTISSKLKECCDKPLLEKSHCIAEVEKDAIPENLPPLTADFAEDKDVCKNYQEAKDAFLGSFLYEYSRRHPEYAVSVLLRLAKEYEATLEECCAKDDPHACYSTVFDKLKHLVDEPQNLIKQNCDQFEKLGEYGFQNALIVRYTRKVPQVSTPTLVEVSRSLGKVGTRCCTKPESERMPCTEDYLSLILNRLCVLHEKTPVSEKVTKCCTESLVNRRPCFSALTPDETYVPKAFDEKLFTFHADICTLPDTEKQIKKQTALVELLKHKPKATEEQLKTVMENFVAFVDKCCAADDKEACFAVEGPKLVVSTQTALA

B1: D4-12 heavy chain antibody variable region (VHH)
VHH: EVQLQQSGPELVKPGASVKISCKASGYMFSDYYMNWVKQSHGKSLEWIGNVDPNTDNTIYNQNFKDKATLTVDRSSRTAYMELHSLTSEDSAVYYCARSRFYDPWFAYWGQGTLVTVSA
Human C-reactive protein [1]
  binding result: binds

B2: G3-35 (VHH)
VHH: EVQLQQSGPELVKPGASVRMSCKASGYTFTDYNIHWVKQSHGESLEWIGFVNPDNGDTYYYKNFKGKATLTFNRSSSTAYMDLRSLTSEDSAVYYCARGTTVEKDYWGQGTTLTVSS
Human C-reactive protein [2]
  binding result: binds

B3: G3-71 (VHH)
VHH: EVQLQQSGPELVKPGASVRMSCKASGYTFTDYNIHWVKQSHGESLEWIGFINPDNGDTYYYKNFRGKATLTLNKSSSTAYMDLRSLTSEDSGVYYCARGTTVEKDYWGQGTILTVSS
Human C-reactive protein [2]
  binding result: binds

B4: G3-23 (VHH)
VHH: EVQLQQSGPEVLKPGTSVRMSCKASGYTFTDYNIHWVKQSRGESLEWIGFVNPDTGDTYYYKNFKGKATLTFNRSSSTAYMDLRSLTSEDSAVYYCARGTTVEKDYWGQGTILTVSS
Human C-reactive protein [2]
  binding result: binds

B5: D5S-12 heavy chain antibody (VHH)
VHH: EVKLLESGGGLVKPGGSLKLSCAASGFTFSDYGMSWIRQTPDKRLEWVATISSGNTYTYYSKSVKGRFTISRDNAKNTLYLQMSSLKSEDTAIYYCSRHTSDYYPLSQGTLVTVSA
Human C-reactive protein [3]
  Kd: 0.987 nM
  koff: 8.44e-05 s⁻¹
  kon: 85500 M⁻¹ s⁻¹
OVA
  binding result: no binding
BSA
  binding result: no binding
